Where two headings read alike, the source gives them in different places. Positions of bridges follow the written chain, without caps; N, C: chain ends. Non-standard residues stand in square brackets, D forms with d. Chains are numbered I, II in the order given. No end group written: not given here. Nle = CCCC[C@H](N)C(=O)O; Aib = CC(C)(N)C(=O)O
T1: RXFP1 receptor (UniProt Q9HBX9 1-757, limits assumed)
T1 sequence (looked up): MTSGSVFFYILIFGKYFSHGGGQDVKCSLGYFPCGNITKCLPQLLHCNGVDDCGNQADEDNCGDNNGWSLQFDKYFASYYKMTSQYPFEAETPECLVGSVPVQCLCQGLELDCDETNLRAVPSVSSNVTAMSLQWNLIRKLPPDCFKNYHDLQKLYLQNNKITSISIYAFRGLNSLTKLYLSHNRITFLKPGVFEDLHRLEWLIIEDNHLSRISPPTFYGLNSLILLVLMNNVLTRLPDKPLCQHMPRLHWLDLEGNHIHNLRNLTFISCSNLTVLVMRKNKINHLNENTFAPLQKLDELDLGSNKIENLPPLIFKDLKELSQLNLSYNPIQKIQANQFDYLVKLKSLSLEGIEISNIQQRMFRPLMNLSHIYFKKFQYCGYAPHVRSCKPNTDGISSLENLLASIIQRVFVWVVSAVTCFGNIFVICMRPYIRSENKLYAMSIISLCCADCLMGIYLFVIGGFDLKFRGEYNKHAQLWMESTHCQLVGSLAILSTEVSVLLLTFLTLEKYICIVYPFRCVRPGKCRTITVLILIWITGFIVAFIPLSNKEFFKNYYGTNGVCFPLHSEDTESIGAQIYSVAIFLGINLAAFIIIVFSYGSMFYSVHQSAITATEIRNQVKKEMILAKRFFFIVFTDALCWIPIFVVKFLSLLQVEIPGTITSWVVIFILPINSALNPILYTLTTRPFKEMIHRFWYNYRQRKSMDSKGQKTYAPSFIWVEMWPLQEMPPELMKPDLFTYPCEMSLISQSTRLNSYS


Tests used:
Assay in all cases: cell-based or functional assay
RXFP1 receptor [1] = target: T1, RXFP1 receptor
RXFP1 receptor [2] = target: T1, RXFP1 receptor; remark: listed apart in the source
RXFP1 receptor [3] = target: T1, RXFP1 receptor; remark: listed apart in the source

Binder	cAMP assay in OVCAR 5 cells EC50 (RXFP1 receptor [1]) [nM]	cAMP assay in OVCAR 5 cells Emax (RXFP1 receptor [1]) [%]	cAMP assay in OVCAR 5 cells EC50 (RXFP1 receptor [2]) [nM]	cAMP assay in OVCAR 5 cells Emax (RXFP1 receptor [2]) [%]	cAMP assay in OVCAR 5 cells EC50 (RXFP1 receptor [3]) [nM]
H-VIKLSGRELVRAQIAISGMSTWSKRSL-NH2 [B7-33 C11.23S]	1640	90	–	–	–
Ac-ELEGREKVRAAI[Aib][Aib]EG[Nle]STWS[Aib]RKK-NH2 (SMILES CCCC[C@H](NC(=O)CNC(=O)[C@H](CCC(=O)O)NC(=O)C(C)(C)NC(=O)C(C)(C)NC(=O)[C@@H](NC(=O)[C@H](C)NC(=O)[C@H](C)NC(=O)[C@H](CCCNC(=N)N)NC(=O)[C@@H](NC(=O)[C@H](CCCCN)NC(=O)[C@H](CCC(=O)O)NC(=O)[C@H](CCCNC(=N)N)NC(=O)CNC(=O)[C@H](CCC(=O)O)NC(=O)[C@H](CC(C)C)NC(=O)[C@H](CCC(=O)O)NC(C)=O)C(C)C)[C@@H](C)CC)C(=O)N[C@@H](CO)C(=O)N[C@H](C(=O)N[C@@H](Cc1c[nH]c2ccccc12)C(=O)N[C@@H](CO)C(=O)NC(C)(C)C(=O)N[C@@H](CCCNC(=N)N)C(=O)N[C@@H](CCCCN)C(=O)N[C@@H](CCCCN)C(N)=O)[C@@H](C)O) [SEQ ID NO: 48]	–	–	19.5	91	–
Ac-VIKLSGRELVRAQIAISGMSTWSKKKK-NH2 [KKKK(AcB7-29 C11.23S)]	206	84	–	–	–
Ac-VIKLSGRELVRAQIAISGMSTWSKRSL-NH2 [AcB7-33 C11.23S]	929	70	–	–	–
Human Relaxin-2 (H2 Relaxin) (ligand, disulfide I:10-I:15, I:11-II:11, I:24-II:23) chain 1: H-QLYSALANKCCHVGCTKRSLARFC-OH chain 2: H-DSWMEEVIKLCGRELVRAQIAICGMSTWS	–	–	–	–	0.1 to 0.3
Ac-LEGREKVRRQI[Aib][Aib]EG[Nle]STWS[Aib]RKK-NH2 (SMILES CCCC[C@H](NC(=O)CNC(=O)[C@H](CCC(=O)O)NC(=O)C(C)(C)NC(=O)C(C)(C)NC(=O)[C@@H](NC(=O)[C@H](CCC(N)=O)NC(=O)[C@H](CCCNC(=N)N)NC(=O)[C@H](CCCNC(=N)N)NC(=O)[C@@H](NC(=O)[C@H](CCCCN)NC(=O)[C@H](CCC(=O)O)NC(=O)[C@H](CCCNC(=N)N)NC(=O)CNC(=O)[C@H](CCC(=O)O)NC(=O)[C@H](CC(C)C)NC(C)=O)C(C)C)[C@@H](C)CC)C(=O)N[C@@H](CO)C(=O)N[C@H](C(=O)N[C@@H](Cc1c[nH]c2ccccc12)C(=O)N[C@@H](CO)C(=O)NC(C)(C)C(=O)N[C@@H](CCCNC(=N)N)C(=O)N[C@@H](CCCCN)C(=O)N[C@@H](CCCCN)C(N)=O)[C@@H](C)O) [SEQ ID NO: 49]	–	–	22.2	95	–
